From patent JP2023110925A (dated 2023)

Target: T1, アミロイドβ (antigen of the amyloid β ELISA) (UniProt P05067 672-713)
T1 construct: also called Aβ
Assay: amyloid β ELISA, conditioned medium of transient transfection

T1 sequence (P05067 672-713): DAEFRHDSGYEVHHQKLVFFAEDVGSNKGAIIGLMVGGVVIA

binding result: no binding
B1: C2 HuVH AF バージョン3 + キメラC2カッパ鎖 (transient) (antibody, name in Kabat numbering, V domains shown)
VH: EVQLVESGGGLVQPGGSLRLSCAASGFTFSSYGMSWVRQAPGKGLELVASINSNGGSTYYPDSVKGRFTISRDNAKNSLYLQMNSLRAEDTAVYYCARGDYWGQGTTVTVSS
VL: DVVMTQTPLSLPVSLGDQASISCRSSQSLVYSNGDTYLHWYLQKPGQSPKLLIYKVSNRFSGVPDRFSGSGSGTDFTLKISRVEAEDLGVYFCSQSTHVPWTFGGGTKLEIK
notes: Transient expression
